In US20240123070A1 (SHANGHAI GENBASE BIOTECHNOLOGY, published 2024):
Each block holds one binder with its values, some of them ahead of it.

Biological target: KRAS G13D antigen (G13D-RT6, SEQ ID NO: 20) loaded on Lovo-DPA0301:DPB0501 cells (human)
Assay: cell-based or functional assay

B2: B8.2.4 TCR mutant β97V-R (TCR, V domains shown)
V domain 1: AQKITQTQPGMFVQEKEAVTLDCTYDTSDPSYGLFWYKQPSSGEMIFLIYQGSYDQQNATEGRYSLNFQKARKSANLVISASQLGDSAMYFCAMRERTGTASKLTFGTGTRLQVTL
V domain 2: DVKVTQSSRYLVKRTGEKVFLECVQDMDHENMFWYRQDPGLGLRLIYFSYDVKMKEKGDIPEGYSVSREKKERFSLILESASTNQTSMYLCASSQTRPPQHFGDGTRLSILE
- TCR Mut RLU/WT RLU: 0.37 ratio

B3: B8.2.4 TCR mutant β97V-L (TCR, V domains shown)
V domain 1: AQKITQTQPGMFVQEKEAVTLDCTYDTSDPSYGLFWYKQPSSGEMIFLIYQGSYDQQNATEGRYSLNFQKARKSANLVISASQLGDSAMYFCAMRERTGTASKLTFGTGTRLQVTL
V domain 2: DVKVTQSSRYLVKRTGEKVFLECVQDMDHENMFWYRQDPGLGLRLIYFSYDVKMKEKGDIPEGYSVSREKKERFSLILESASTNQTSMYLCASSQTLPPQHFGDGTRLSILE
- TCR Mut RLU/WT RLU: 0.58 ratio

B4: B8.2.4 TCR mutant β97V-H (TCR, V domains shown)
V domain 1: AQKITQTQPGMFVQEKEAVTLDCTYDTSDPSYGLFWYKQPSSGEMIFLIYQGSYDQQNATEGRYSLNFQKARKSANLVISASQLGDSAMYFCAMRERTGTASKLTFGTGTRLQVTL
V domain 2: DVKVTQSSRYLVKRTGEKVFLECVQDMDHENMFWYRQDPGLGLRLIYFSYDVKMKEKGDIPEGYSVSREKKERFSLILESASTNQTSMYLCASSQTHPPQHFGDGTRLSILE
- TCR Mut RLU/WT RLU: 0.44 ratio

B6: B8.2.4 TCR mutant β97V-N (TCR, V domains shown)
V domain 1: AQKITQTQPGMFVQEKEAVTLDCTYDTSDPSYGLFWYKQPSSGEMIFLIYQGSYDQQNATEGRYSLNFQKARKSANLVISASQLGDSAMYFCAMRERTGTASKLTFGTGTRLQVTL
V domain 2: DVKVTQSSRYLVKRTGEKVFLECVQDMDHENMFWYRQDPGLGLRLIYFSYDVKMKEKGDIPEGYSVSREKKERFSLILESASTNQTSMYLCASSQTNPPQHFGDGTRLSILE
- TCR Mut RLU/WT RLU: 0.26 ratio

B7: B8.2.4 TCR mutant β97V-P (TCR, V domains shown)
V domain 1: AQKITQTQPGMFVQEKEAVTLDCTYDTSDPSYGLFWYKQPSSGEMIFLIYQGSYDQQNATEGRYSLNFQKARKSANLVISASQLGDSAMYFCAMRERTGTASKLTFGTGTRLQVTL
V domain 2: DVKVTQSSRYLVKRTGEKVFLECVQDMDHENMFWYRQDPGLGLRLIYFSYDVKMKEKGDIPEGYSVSREKKERFSLILESASTNQTSMYLCASSQTPPPQHFGDGTRLSILE
- TCR Mut RLU/WT RLU: 0.32 ratio

B10: B8.2.4 TCR mutant β97V-K (TCR, V domains shown)
V domain 1: AQKITQTQPGMFVQEKEAVTLDCTYDTSDPSYGLFWYKQPSSGEMIFLIYQGSYDQQNATEGRYSLNFQKARKSANLVISASQLGDSAMYFCAMRERTGTASKLTFGTGTRLQVTL
V domain 2: DVKVTQSSRYLVKRTGEKVFLECVQDMDHENMFWYRQDPGLGLRLIYFSYDVKMKEKGDIPEGYSVSREKKERFSLILESASTNQTSMYLCASSQTKPPQHFGDGTRLSILE
- TCR Mut RLU/WT RLU: 0.48 ratio

B11: B8.2.4 TCR mutant β97V-Q (TCR, V domains shown)
V domain 1: AQKITQTQPGMFVQEKEAVTLDCTYDTSDPSYGLFWYKQPSSGEMIFLIYQGSYDQQNATEGRYSLNFQKARKSANLVISASQLGDSAMYFCAMRERTGTASKLTFGTGTRLQVTL
V domain 2: DVKVTQSSRYLVKRTGEKVFLECVQDMDHENMFWYRQDPGLGLRLIYFSYDVKMKEKGDIPEGYSVSREKKERFSLILESASTNQTSMYLCASSQTQPPQHFGDGTRLSILE
- TCR Mut RLU/WT RLU: 0.3 ratio

Second part, the binder after the results:

- TCR Mut RLU/WT RLU: 0.26 ratio
B1: B8.2.4 TCR mutant β97V-G (TCR, V domains shown)
V domain 1: AQKITQTQPGMFVQEKEAVTLDCTYDTSDPSYGLFWYKQPSSGEMIFLIYQGSYDQQNATEGRYSLNFQKARKSANLVISASQLGDSAMYFCAMRERTGTASKLTFGTGTRLQVTL
V domain 2: DVKVTQSSRYLVKRTGEKVFLECVQDMDHENMFWYRQDPGLGLRLIYFSYDVKMKEKGDIPEGYSVSREKKERFSLILESASTNQTSMYLCASSQTGPPQHFGDGTRLSILE

- TCR Mut RLU/WT RLU: 0.35 ratio
B5: B8.2.4 TCR mutant β97V-M (TCR, V domains shown)
V domain 1: AQKITQTQPGMFVQEKEAVTLDCTYDTSDPSYGLFWYKQPSSGEMIFLIYQGSYDQQNATEGRYSLNFQKARKSANLVISASQLGDSAMYFCAMRERTGTASKLTFGTGTRLQVTL
V domain 2: DVKVTQSSRYLVKRTGEKVFLECVQDMDHENMFWYRQDPGLGLRLIYFSYDVKMKEKGDIPEGYSVSREKKERFSLILESASTNQTSMYLCASSQTMPPQHFGDGTRLSILE

- TCR Mut RLU/WT RLU: 0.61 ratio
B8: B8.2.4 TCR mutant β97V-I (TCR, V domains shown)
V domain 1: AQKITQTQPGMFVQEKEAVTLDCTYDTSDPSYGLFWYKQPSSGEMIFLIYQGSYDQQNATEGRYSLNFQKARKSANLVISASQLGDSAMYFCAMRERTGTASKLTFGTGTRLQVTL
V domain 2: DVKVTQSSRYLVKRTGEKVFLECVQDMDHENMFWYRQDPGLGLRLIYFSYDVKMKEKGDIPEGYSVSREKKERFSLILESASTNQTSMYLCASSQTIPPQHFGDGTRLSILE

- TCR Mut RLU/WT RLU: 0.78 ratio
B9: B8.2.4 TCR mutant β97V-S (TCR, V domains shown)
V domain 1: AQKITQTQPGMFVQEKEAVTLDCTYDTSDPSYGLFWYKQPSSGEMIFLIYQGSYDQQNATEGRYSLNFQKARKSANLVISASQLGDSAMYFCAMRERTGTASKLTFGTGTRLQVTL
V domain 2: DVKVTQSSRYLVKRTGEKVFLECVQDMDHENMFWYRQDPGLGLRLIYFSYDVKMKEKGDIPEGYSVSREKKERFSLILESASTNQTSMYLCASSQTSPPQHFGDGTRLSILE
